Source: the Human Domainome abundance scans (Beltran et al. 2025)
± gives the uncertainty stated by the source.

B1: Homeobox protein SIX3, residues 212 to 262; numbered along this chain, O95343 (parent)
chain: CFKERTRSLLREWYLQDPYPNPSKKRELAQATGLTPTQVGNWFKNRRQRDR

Variants of: B1
Assay: abundance fitness (aPCA) (normalised: wild type 0, dead -1); higher = more abundant; growth selection in yeast, the domain comes from the species named
Settings: Homo sapiens

First: CFKERTRSLLREWYLQDPYPNPSKKRELAQAQGLTPTQVGNWFKNRRQRDR
Second: CFKERTRSLLREWYLQDPYPNPSKKRELAQACGLTPTQVGNWFKNRRQRDR
The abundance fitness of the first is lower: -1.23 ± 0.39 for the first, -0.026 ± 0.055 for the second.

First: CFKERTRSLLREWYLQDPYPNPSKKRELKQATGLTPTQVGNWFKNRRQRDR
Second: CFKERTRSLLREWYLQDPYPNPSKKRELGQATGLTPTQVGNWFKNRRQRDR
The abundance fitness of the first is lower: -0.856 ± 0.24 for the first, -0.468 ± 0.065 for the second.

CFKERTRSLLREWYLQDPYPNPSKKRELTQATGLTPTQVGNWFKNRRQRDR and CFKERTRSLLREWYLQDPYPNPSKKRELMQATGLTPTQVGNWFKNRRQRDR are within error of each other in abundance fitness: -0.76 ± 0.26 for the first, -1.03 ± 0.19 for the second.

CFKERTRSLLREWYLQDPYPNPSKKRELPQATGLTPTQVGNWFKNRRQRDR and CFKERTRSLLREWYLQDPYPNPSKKRELRQATGLTPTQVGNWFKNRRQRDR are within error of each other in abundance fitness: -0.911 ± 0.25 for the first, -1.11 ± 0.19 for the second.

First: CFKERTRSLLREWYLQDPYPNPSKKRELSQATGLTPTQVGNWFKNRRQRDR
Second: CFKERTRSLLREWYLQDPYPNPSKKRELWQATGLTPTQVGNWFKNRRQRDR
The abundance fitness of the first is higher: -0.125 ± 0.084 for the first, -0.704 ± 0.16 for the second.

CFKERTRSLLREWYLQDPYPNPSKKRELLQATGLTPTQVGNWFKNRRQRDR and CFKERTRSLLREWYLQDPYPNPSKKRELEQATGLTPTQVGNWFKNRRQRDR are within error of each other in abundance fitness: -0.911 ± 0.18 for the first, -0.888 ± 0.16 for the second.

CFKERTRSLLREWYLQDPYPNPSKKRELQQATGLTPTQVGNWFKNRRQRDR and CFKERTRSLLREWYLQDPYPNPSKKRELCQATGLTPTQVGNWFKNRRQRDR are within error of each other in abundance fitness: -0.897 ± 0.37 for the first, -0.588 ± 0.24 for the second.

CFKERTRSLLREWYLQDPYPNPSKKRELHQATGLTPTQVGNWFKNRRQRDR and CFKERTRSLLREWYLQDPYPNPSKKRELDQATGLTPTQVGNWFKNRRQRDR are within error of each other in abundance fitness: -0.777 ± 0.34 for the first, -0.93 ± 0.41 for the second.

CFKERTRSLLREWYLQDPYPNPSKKRELAQSTGLTPTQVGNWFKNRRQRDR and CFKERTRSLLREWYLQDPYPNPSKKRELAQMTGLTPTQVGNWFKNRRQRDR are within error of each other in abundance fitness: -0.186 ± 0.06 for the first, -0.087 ± 0.078 for the second.

CFKERTRSLLREWYLQDPYPNPSKKRELAQNTGLTPTQVGNWFKNRRQRDR and CFKERTRSLLREWYLQDPYPNPSKKRELAQDTGLTPTQVGNWFKNRRQRDR are within error of each other in abundance fitness: -0.506 ± 0.16 for the first, -0.475 ± 0.12 for the second.

CFKERTRSLLREWYLQDPYPNPSKKRELAQETGLTPTQVGNWFKNRRQRDR and CFKERTRSLLREWYLQDPYPNPSKKRELAQVTGLTPTQVGNWFKNRRQRDR are within error of each other in abundance fitness: -0.076 ± 0.048 for the first, -0.169 ± 0.069 for the second.

First: CFKERTRSLLREWYLQDPYPNPSKKRELAQLTGLTPTQVGNWFKNRRQRDR
Second: CFKERTRSLLREWYLQDPYPNPSKKRELAQKTGLTPTQVGNWFKNRRQRDR
The abundance fitness of the first is higher: 0.088 ± 0.065 for the first, -0.094 ± 0.094 for the second.

First: CFKERTRSLLREWYLQDPYPNPSKKRELAQTTGLTPTQVGNWFKNRRQRDR
Second: CFKERTRSLLREWYLQDPYPNPSKKRELAQWTGLTPTQVGNWFKNRRQRDR
The abundance fitness of the first is higher: -0.147 ± 0.063 for the first, -0.326 ± 0.052 for the second.

First: CFKERTRSLLREWYLQDPYPNPSKKRELAQYTGLTPTQVGNWFKNRRQRDR
Second: CFKERTRSLLREWYLQDPYPNPSKKRELAQFTGLTPTQVGNWFKNRRQRDR
The abundance fitness of the first is higher: -0.349 ± 0.069 for the first, -0.749 ± 0.18 for the second.

First: CFKERTRSLLREWYLQDPYPNPSKKRELAQPTGLTPTQVGNWFKNRRQRDR
Second: CFKERTRSLLREWYLQDPYPNPSKKRELAQITGLTPTQVGNWFKNRRQRDR
The abundance fitness of the first is lower: -0.892 ± 0.27 for the first, -0.148 ± 0.1 for the second.

First: CFKERTRSLLREWYLQDPYPNPSKKRELAQHTGLTPTQVGNWFKNRRQRDR
Second: CFKERTRSLLREWYLQDPYPNPSKKRELAQGTGLTPTQVGNWFKNRRQRDR
The abundance fitness of the first is higher: -0.062 ± 0.11 for the first, -0.651 ± 0.044 for the second.

First: CFKERTRSLLREWYLQDPYPNPSKKRELAQCTGLTPTQVGNWFKNRRQRDR
Second: CFKERTRSLLREWYLQDPYPNPSKKRELAQQTGLTPTQVGNWFKNRRQRDR
The abundance fitness of the first is lower: -0.296 ± 0.095 for the first, -0.023 ± 0.077 for the second.

CFKERTRSLLREWYLQDPYPNPSKKRELAQATHLTPTQVGNWFKNRRQRDR and CFKERTRSLLREWYLQDPYPNPSKKRELAQATILTPTQVGNWFKNRRQRDR are within error of each other in abundance fitness: -0.542 ± 0.12 for the first, -0.902 ± 0.25 for the second.

Going from CFKERTRSLLREWYLQDPYPNPSKKRELAQATCLTPTQVGNWFKNRRQRDR to CFKERTRSLLREWYLQDPYPNPSKKRELAQATELTPTQVGNWFKNRRQRDR, the abundance fitness falls from -0.643 ± 0.12 to -0.915 ± 0.12.

First: CFKERTRSLLREWYLQDPYPNPSKKRELAQATKLTPTQVGNWFKNRRQRDR
Second: CFKERTRSLLREWYLQDPYPNPSKKRELAQATPLTPTQVGNWFKNRRQRDR
The abundance fitness of the first is higher: -0.494 ± 0.073 for the first, -0.746 ± 0.16 for the second.

First: CFKERTRSLLREWYLQDPYPNPSKKRELAQATLLTPTQVGNWFKNRRQRDR
Second: CFKERTRSLLREWYLQDPYPNPSKKRELAQATDLTPTQVGNWFKNRRQRDR
The abundance fitness of the first is lower: -0.812 ± 0.057 for the first, -0.412 ± 0.079 for the second.

Compared with CFKERTRSLLREWYLQDPYPNPSKKRELAQATFLTPTQVGNWFKNRRQRDR, CFKERTRSLLREWYLQDPYPNPSKKRELAQATSLTPTQVGNWFKNRRQRDR is higher in abundance fitness: -0.774 ± 0.065 for the first, -0.555 ± 0.052 for the second.

CFKERTRSLLREWYLQDPYPNPSKKRELAQATTLTPTQVGNWFKNRRQRDR and CFKERTRSLLREWYLQDPYPNPSKKRELAQATVLTPTQVGNWFKNRRQRDR are within error of each other in abundance fitness: -0.766 ± 0.17 for the first, -0.779 ± 0.077 for the second.

CFKERTRSLLREWYLQDPYPNPSKKRELAQATQLTPTQVGNWFKNRRQRDR and CFKERTRSLLREWYLQDPYPNPSKKRELAQATRLTPTQVGNWFKNRRQRDR are within error of each other in abundance fitness: -0.57 ± 0.087 for the first, -0.613 ± 0.057 for the second.

Compared with CFKERTRSLLREWYLQDPYPNPSKKRELAQATNLTPTQVGNWFKNRRQRDR, CFKERTRSLLREWYLQDPYPNPSKKRELAQATMLTPTQVGNWFKNRRQRDR is lower in abundance fitness: 0.029 ± 0.12 for the first, -0.75 ± 0.11 for the second.

Variant CFKERTRSLLREWYLQDPYPNPSKKRELAQATALTPTQVGNWFKNRRQRDR has an abundance fitness of -0.674 ± 0.1.
